± gives the uncertainty stated by the source.
Assay: protein stability index of a GFP-peptide fusion (yeast GPS) (PSI 1-4); higher = more stable; sorted into four equal gates, so the index is relative within each strain
How it was run: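 Plasmids in a pooled yeast library fused tiled 17-residue yeast protein peptides downstream of GFP and also expressed Cherry. Mid-log cultures grown without leucine were sorted into four equal gates by GFP/Cherry fluorescence ratio. Each gate's plasmids were PCR-amplified and Illumina-sequenced, and reads were matched to strains by barcodes. The protein stability index is derived by multiplying each gate's read frequency by its gate number and summing the results.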

Sequence	protein stability index (doa10∆)	protein stability index (pdr5∆)	protein stability index (san1∆)	protein stability index (ubr1∆)
ENFAKGEHISAIVPGQS [SWP82]	3.01 ± 0.064	3.18 ± 0.085	2.87 ± 0.06	3.05 ± 0.055
TLVKGPKEPRLKSQMDT [SKI6]	3.09 ± 0.25	3.05 ± 0.13		3.33 ± 0.091
FEETKLSTTPTKSNRRV [SIR4]	2.65 ± 0.1	2.83 ± 0.12	2.73 ± 0.12	2.78 ± 0.15
IKGSKLSLGEAFKKIDA [COR1]	3.29 ± 0.28		2.29 ± 0.16	2.64 ± 0.093
ATRHVLMRQGVLGIKVK [RPS3]	2.07 ± 0.096	2.27 ± 0.073	1.93 ± 0.095	2.07 ± 0.056
FVKFITYLTQEILILIN [SIN4]	2.02 ± 0.05	1.7 ± 0.044	1.57 ± 0.069	1.59 ± 0.042
SSVEMLLDVVKGTEASN [YDL116W/NUP84]	2.89 ± 0.071	3.1 ± 0.091	2.55 ± 0.052	2.9 ± 0.063
KDVAKPTGPKTAIDKNG [FAS2]	3.31 ± 0.18	3.04 ± 0.11	3.06 ± 0.074	3.19 ± 0.1
ADEEEEIVDTYQEDIFV [ISW2]	2.8 ± 0.11	2.67 ± 0.12	3.43 ± 0.12	2.48 ± 0.088
SVRTAVFSALKNLISRI [ECM29]	2.34 ± 0.049	2.31 ± 0.045	2.03 ± 0.064	2.53 ± 0.035
IYNSASKASMQKEQNVN [YCS4]	1.65 ± 0.13	2.11 ± 0.13	1.58 ± 0.22	2.17 ± 0.077
IHLYMLTFHTLKKANII [YLR018C/POM34]	1.31 ± 0.051	1.27 ± 0.06	1.21 ± 0.12	1.09 ± 0.042
PSPISHVAEIRSALEKG [RPB2]	1.68 ± 0.076	1.93 ± 0.066	1.68 ± 0.09	1.76 ± 0.053
DYPSTSLDIRHDFIKGL [NUT1]	2.9 ± 0.14	2.88 ± 0.076	3.14 ± 0.057	2.56 ± 0.062
LKMMKLIVDTHVQFRLG [PRP8]	2.53 ± 0.08	2.21 ± 0.075	2.56 ± 0.059	1.93 ± 0.048
HMADAKIMPKDILQITK [SIR4]	2.99 ± 0.072	3.29 ± 0.068	2.87 ± 0.071	2.95 ± 0.063
LRYVIMKNPDVEFCGYS [RPC19]	2.2 ± 0.14	2.07 ± 0.081	2.3 ± 0.15	2.87 ± 0.091
LIQDLLHRLTPKNVKGE [RPN1]	3.44 ± 0.25	3.27 ± 0.11	3.51 ± 0.21	3.01 ± 0.14
AGTEANAVSFDTTFSDF [SRB4]	3.03 ± 0.042	3.06 ± 0.045	3.036 ± 0.029	3.02 ± 0.038
KQRTKKEDKSEAIDGNG [SNF2]	3.55 ± 0.13	3.36 ± 0.075	3.17 ± 0.073	3.19 ± 0.072
LSRPSLPKIKTVRKSIA [RPL35A]	1.54 ± 0.06	1.94 ± 0.073	2.31 ± 0.059	1.85 ± 0.054
GTWSAKEAVFKSLGVKS [FAS2]	2.94 ± 0.088	3.34 ± 0.089	3.23 ± 0.1	2.88 ± 0.094
RKANREEKLKANKEKKK [RPL24A]	2.88 ± 0.074	1.98 ± 0.066	2.15 ± 0.087	2.31 ± 0.053
ANGIINVKEITEKLKIS [SMC3]	2.81 ± 0.12	2.64 ± 0.099	2.75 ± 0.14	2.9 ± 0.06
IGSNGSGKSNFFAAIRF [SMC3]	3.03 ± 0.068	3.07 ± 0.066	3.02 ± 0.05	3.05 ± 0.039
LVTCEGSEEKAFVPKKR [SRP54]	2.19 ± 0.12	1.85 ± 0.11	1.62 ± 0.13	1.61 ± 0.066

Sequence	protein stability index (doa10∆)	protein stability index (pdr5∆)	protein stability index (san1∆)	protein stability index (ubr1∆)
LQQELATTQDQVASIIE [NUT2]	2.77 ± 0.059	2.95 ± 0.043	3.23 ± 0.053	2.98 ± 0.037
LTLDPRYIWRSLKDLSS [RPN3]	2.78 ± 0.14	2.39 ± 0.29	2.82 ± 0.097	
RLLNTNVDGNIKIVYAL [RPS18A]				3.27 ± 0.16
ILEDFRVIKDFKKLNSK [YMR153W/NUP53]	3.15 ± 0.11	3.32 ± 0.12	3.58 ± 0.055	3.29 ± 0.063
RPKKVKLEGSENSEPPA [SNF2]	3.13 ± 0.095	2.95 ± 0.08	3.33 ± 0.079	3.28 ± 0.063
NQQQQNQQPQQQQQQQQ [SWI1]	3.06 ± 0.049	2.93 ± 0.037	2.88 ± 0.03	2.83 ± 0.032
EGNEKLAAVPAAGPASA [RPP2A]	2.06 ± 0.061	2.23 ± 0.063	2.17 ± 0.09	2.79 ± 0.063
TAKLQMRRFILGTTEGD [RPN14]	1.41 ± 0.27	1.45 ± 0.095		
ADAKAFLDSMAQKYASI [FAS2]	3.07 ± 0.083	3.19 ± 0.086	3.12 ± 0.047	2.94 ± 0.049
VKCKMSALQQIMYQQML [SNF2]	2.8 ± 0.11	2.56 ± 0.14	2.72 ± 0.12	2.8 ± 0.074
MEQCKQRYQDLSQQQKD [YIL149C/MLP2]	3.33 ± 0.086	3.3 ± 0.074	2.95 ± 0.067	2.95 ± 0.048
INLAMNESSLALEFVSL [SRB4]	1.44 ± 0.088	1.41 ± 0.074	1.81 ± 0.12	1.92 ± 0.064
VLRLKPGRKYTTLGKLS [RPL16A]	2.83 ± 0.047	2.94 ± 0.05	2.86 ± 0.082	3.03 ± 0.051
LVVIRFGRKNDRQCMIM [DIB1]	2.4 ± 0.061	2.55 ± 0.055	2.33 ± 0.073	2.79 ± 0.038
DNEEASVKLDLQDDEDH [BRN1]	2.99 ± 0.1	3.45 ± 0.084	3.05 ± 0.071	3.35 ± 0.097
MNVTPLDELQWKSPEWI [MED6]	3.1 ± 0.13	3.14 ± 0.1	3.19 ± 0.061	3.37 ± 0.21
IVDDYWESLAKKQNLSS [SWP82]	2.91 ± 0.073	2.93 ± 0.089	3.45 ± 0.1	2.96 ± 0.059
DYSKPNLPPHYALFLKA [SSN2]	2.15 ± 0.07	2.03 ± 0.073	1.78 ± 0.11	1.99 ± 0.056
YFSVTTARRNVSGDAAA [SWI3]	1.9 ± 0.059	2.23 ± 0.063	2.33 ± 0.08	1.88 ± 0.047
EDPKRRADTMDFKTDVD [YJL039C/NUP192]	3.29 ± 0.1	3.51 ± 0.086	3.4 ± 0.096	3.24 ± 0.1
EKRYDDKLLDFIRYDVK [CSN12]	3.3 ± 0.063	3.25 ± 0.066	3.22 ± 0.046	3.17 ± 0.066
TETKRLVVIRFGRKNDR [DIB1]	2.87 ± 0.11	2.24 ± 0.089	2.03 ± 0.12	2.89 ± 0.065
VLSALEGKSVDELITEG [RPP2A]		3.23 ± 0.15	3.41 ± 0.073	3.45 ± 0.28
TEAVTQLIGSNIELHSL [PUP1]	3.29 ± 0.2	3.23 ± 0.12	3.44 ± 0.11	2.96 ± 0.13
IADSTHVKRITKIAQSQ [ECM29]	1.86 ± 0.097	1.71 ± 0.059	1.3 ± 0.12	1.38 ± 0.044

Reference: the supplement of paper PMC9732359
